Measurements from the supplement of paper PMC10724198.
± gives the standard deviation of the averaged measurements.

What follows are sequences tested on Saccharomyces cerevisiae (assay: protein stability index of tFT-peptide fusion (C-terminal peptide) (PSI (0-1 scale)); higher = more stable (slower turnover)). Details: genetic background: doa10 deletion; temperature: 30 C.
Experimental: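 MPS profiling in S. cerevisiae of the tFT-X12 degron library: putative degron peptides plus stable controls, 12 aa, fused to the C-terminus of a sfGFP-mCherry timer. Cells are FACS-sorted into 8 mCherry/sfGFP bins and deep-sequenced. PSI runs from 0 (unstable) to 1 (stable). Backgrounds are wild type, das1Δ and doa10Δ at 30 °C, and wild type, das1Δ, cdc34-1 and cdc53-1 at 37 °C; 2-3 technical replicates each.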
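Also: PSI is a weighted mean of sequencing reads over stability bins, variants kept only with over 10 reads, mCherry proximal and sfGFP distal, peptide attached via GGGS linker.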

First: CFCPILFPRCLA
Second: CFGFMFLLLFDV
The protein stability index of the first is lower: 0.142 ± 0.017 for the first, 0.467 ± 0.011 for the second.

Going from CFRRPLLRVVLT to CFSYLLIVLLFP, the protein stability index falls from 0.4289 ± 0.0035 to 0.216 ± 0.0065.

Going from CFVPFFLPLCAF to CGILACSVCTFF, the protein stability index rises from 0.144 ± 0.0073 to 0.405 ± 0.016.

Going from CGLLWFYSFFLF to CGLYNQFCLFLY, the protein stability index falls from 0.375 ± 0.012 to 0.2274 ± 0.0022.

Compared with CGVWVVVASAYR, CGWVRRARVKMM is lower in protein stability index: 0.2812 ± 0.0017 for the first, 0.114 ± 0.03 for the second.

Compared with CHFLLPFLFTCA, FGGVFCVMARLV is higher in protein stability index: 0.1949 ± 0.0015 for the first, 0.318 ± 0.0054 for the second.

Going from GGGGGGRWGRLC to IRRWGRCRVRCM, the protein stability index rises from 0.189 ± 0.0036 to 0.255 ± 0.0087.

First: LIVFSGFLFLLS
Second: PVPERTSATEPP
The protein stability index of the first is lower: 0.3758 ± 0.0014 for the first, 0.634 ± 0.0083 for the second.

RLLLLPGPLALQ and RRAVGLANFTIK are within error of each other in protein stability index: 0.685 ± 0.054 for the first, 0.639 ± 0.06 for the second.

Compared with VLICFSVFSWVV, VPPGCSLFAFIL is higher in protein stability index: 0.0228 ± 0.0066 for the first, 0.555 ± 0.032 for the second.

Same assay, conditions: genetic background: wild type; temperature: 30 C

Going from AEIVCLTDGLLF to AFFLLVSLLVSP, the protein stability index falls from 0.665 ± 0.024 to 0.132 ± 0.041.

Going from AFPSSVILMVFS to AFVVYSGSHGLV, the protein stability index rises from 0.287 ± 0.018 to 0.654 ± 0.014.

Going from AGALAVALPCIC to AGGGGRFWVCVG, the protein stability index falls from 0.358 ± 0.028 to 0.258 ± 0.028.

First: ALLVLTVSYVFS
Second: ALVWYSLSIIVN
The protein stability index of the first is higher: 0.0839 ± 0.013 for the first, 0.0403 ± 0.021 for the second.

APGGRGAAGPSC and APPLPFPTPPPS are within error of each other in protein stability index: 0.655 ± 0.033 for the first, 0.633 ± 0.029 for the second.

Compared with ARALLGVGWYWV, ARCKRSLSGGIG is higher in protein stability index: 0.272 ± 0.02 for the first, 0.524 ± 0.022 for the second.

ARSGGYLMVVLV and ASFVCWSVCALG are within error of each other in protein stability index: 0.384 ± 0.023 for the first, 0.398 ± 0.019 for the second.

Compared with ASGFLVIPLWVF, ASICAFFCWFLV is higher in protein stability index: 0.19 ± 0.018 for the first, 0.321 ± 0.026 for the second.

Compared with ASSFYVDLVLVS, AVTMSYQCGIFI is higher in protein stability index: 0.327 ± 0.046 for the first, 0.566 ± 0.019 for the second.

Compared with AYACSILRCKSS, CAGRQGRERGHT is higher in protein stability index: 0.219 ± 0.052 for the first, 0.658 ± 0.013 for the second.

CALFLLSSPSPT and CASIVDGFAFRF are within error of each other in protein stability index: 0.6451 ± 0.0031 for the first, 0.679 ± 0.046 for the second.

Compared with CFCPILFPRCLA, CFGFMFLLLFDV is higher in protein stability index: 0.139 ± 0.021 for the first, 0.317 ± 0.027 for the second.

Compared with CFRRPLLRVVLT, CFSYLLIVLLFP is lower in protein stability index: 0.435 ± 0.017 for the first, 0.17 ± 0.045 for the second.

Compared with CFVPFFLPLCAF, CGILACSVCTFF is higher in protein stability index: 0.0733 ± 0.019 for the first, 0.436 ± 0.024 for the second.

Compared with CGLLWFYSFFLF, CGLYNQFCLFLY is lower in protein stability index: 0.316 ± 0.013 for the first, 0.217 ± 0.029 for the second.

Going from CGVWVVVASAYR to CGWVRRARVKMM, the protein stability index falls from 0.304 ± 0.019 to 0.137 ± 0.029.

Compared with CHFLLPFLFTCA, FGGVFCVMARLV is higher in protein stability index: 0.221 ± 0.024 for the first, 0.356 ± 0.025 for the second.

Compared with GGGGGGRWGRLC, IRRWGRCRVRCM is higher in protein stability index: 0.232 ± 0.018 for the first, 0.288 ± 0.028 for the second.

Compared with LIVFSGFLFLLS, PVPERTSATEPP is higher in protein stability index: 0.364 ± 0.023 for the first, 0.627 ± 0.019 for the second.

RLLLLPGPLALQ and RRAVGLANFTIK are within error of each other in protein stability index: 0.673 ± 0.021 for the first, 0.671 ± 0.019 for the second.

Going from VLICFSVFSWVV to VPPGCSLFAFIL, the protein stability index rises from 0.0178 ± 0.0049 to 0.547 ± 0.019.

Same assay, conditions: genetic background: wild type; temperature: 37 C

First: AEIVCLTDGLLF
Second: AFFLLVSLLVSP
The protein stability index of the first is higher: 0.707 ± 0.0076 for the first, 0.186 ± 0.0021 for the second.

Compared with AFPSSVILMVFS, AFVVYSGSHGLV is higher in protein stability index: 0.3872 ± 0.0029 for the first, 0.7186 ± 0.003 for the second.

Compared with AGALAVALPCIC, AGGGGRFWVCVG is higher in protein stability index: 0.48 ± 0.011 for the first, 0.5539 ± 0.0019 for the second.

Going from ALLVLTVSYVFS to ALVWYSLSIIVN, the protein stability index falls from 0.153 ± 0.031 to 0.0736 ± 0.04.

APGGRGAAGPSC and APPLPFPTPPPS are within error of each other in protein stability index: 0.704 ± 0.018 for the first, 0.678 ± 0.0098 for the second.

ARALLGVGWYWV and ARCKRSLSGGIG are within error of each other in protein stability index: 0.537 ± 0.0059 for the first, 0.54 ± 0.011 for the second.

First: ARSGGYLMVVLV
Second: ASFVCWSVCALG
The protein stability index of the first is higher: 0.562 ± 0.038 for the first, 0.5104 ± 0.0049 for the second.

Compared with ASGFLVIPLWVF, ASICAFFCWFLV is higher in protein stability index: 0.255 ± 0.0083 for the first, 0.497 ± 0.013 for the second.

First: ASSFYVDLVLVS
Second: AVTMSYQCGIFI
The protein stability index of the first is lower: 0.484 ± 0.0065 for the first, 0.68 ± 0.022 for the second.

First: AYACSILRCKSS
Second: CAGRQGRERGHT
The protein stability index of the first is lower: 0.422 ± 0.04 for the first, 0.717 ± 0.036 for the second.

First: CALFLLSSPSPT
Second: CASIVDGFAFRF
The protein stability index of the first is lower: 0.7356 ± 0.0054 for the first, 0.7472 ± 0.0015 for the second.

Compared with CFCPILFPRCLA, CFGFMFLLLFDV is higher in protein stability index: 0.19 ± 0.013 for the first, 0.418 ± 0.0039 for the second.

First: CFRRPLLRVVLT
Second: CFSYLLIVLLFP
The protein stability index of the first is higher: 0.569 ± 0.0089 for the first, 0.307 ± 0.0052 for the second.

Compared with CFVPFFLPLCAF, CGILACSVCTFF is higher in protein stability index: 0.0588 ± 0.022 for the first, 0.61 ± 0.023 for the second.

Compared with CGLLWFYSFFLF, CGLYNQFCLFLY is lower in protein stability index: 0.465 ± 0.018 for the first, 0.37 ± 0.0043 for the second.

First: CGVWVVVASAYR
Second: CGWVRRARVKMM
The protein stability index of the first is higher: 0.508 ± 0.0093 for the first, 0.226 ± 0.0087 for the second.

Compared with CHFLLPFLFTCA, FGGVFCVMARLV is higher in protein stability index: 0.309 ± 0.0071 for the first, 0.506 ± 0.0059 for the second.

Going from GGGGGGRWGRLC to IRRWGRCRVRCM, the protein stability index rises from 0.478 ± 0.0099 to 0.52896 ± 2.4e-05.

Going from LIVFSGFLFLLS to PVPERTSATEPP, the protein stability index rises from 0.5096 ± 0.0027 to 0.655 ± 0.0013.

RLLLLPGPLALQ and RRAVGLANFTIK are within error of each other in protein stability index: 0.714 ± 0.062 for the first, 0.706 ± 0.022 for the second.

First: VLICFSVFSWVV
Second: VPPGCSLFAFIL
The protein stability index of the first is lower: 0.0371 ± 0.0086 for the first, 0.73 ± 0.01 for the second.
